Assay results from PMC10397247.
One block for each binder: values may come before it.

Columns and labels:
[1] = molecular target: T1, P9mS; test: two-hybrid library CCNG1;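 further: natural log of median RNA to DNA barcode read ratio; higher means stronger binding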
T1 chain: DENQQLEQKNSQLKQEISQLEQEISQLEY

[2] = molecular target: T2, 4H470-bH; test: two-hybrid library CCNG1;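 further: natural log of median RNA to DNA barcode read ratio; higher means stronger binding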
T2 chain: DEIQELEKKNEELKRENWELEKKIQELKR

[3] = molecular target: T3, 4H918-bA; test: two-hybrid library CCNG1;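 further: natural log of median RNA to DNA barcode read ratio; higher means stronger binding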
T3 chain: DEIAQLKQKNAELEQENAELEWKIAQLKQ

[4] = molecular target: T4, 4H754-bA; test: two-hybrid library CCNG1;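 further: natural log of median RNA to DNA barcode read ratio; higher means stronger binding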
T4 chain: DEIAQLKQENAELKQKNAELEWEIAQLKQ

[5] = molecular target: T5, 4H2673-bA; test: two-hybrid library CCNG1
T5 chain: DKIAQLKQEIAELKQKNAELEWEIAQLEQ

[6] = molecular target: T6, 4H3427-bA; test: two-hybrid library CCNG1
T6 chain: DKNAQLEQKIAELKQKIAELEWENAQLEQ

[7] = molecular target: T7, 4H3926-bA; test: two-hybrid library CCNG1
T7 chain: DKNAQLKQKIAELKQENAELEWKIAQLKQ

[8] = molecular target: T8, 4H797-bA; test: two-hybrid library CCNG1
T8 chain: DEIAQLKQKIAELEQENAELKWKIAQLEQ

[9] = molecular target: T9, 4H780-bA; test: two-hybrid library CCNG1
T9 chain: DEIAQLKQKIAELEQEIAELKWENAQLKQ

[10] = molecular target: T10, 4H346-bA; test: two-hybrid library CCNG1
T10 chain: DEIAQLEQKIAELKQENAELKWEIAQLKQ

[11] = molecular target: T11, 4H457-bA; test: two-hybrid library CCNG1
T11 chain: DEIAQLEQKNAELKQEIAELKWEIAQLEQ

[12] = molecular target: T12, 4H683-bA; test: two-hybrid library CCNG1
T12 chain: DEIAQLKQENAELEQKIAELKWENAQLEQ

[13] = molecular target: T13, 4H953-bA; test: two-hybrid library CCNG1
T13 chain: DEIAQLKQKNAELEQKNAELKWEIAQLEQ

[14] = molecular target: T14, 4H3112-bA; test: two-hybrid library CCNG1
T14 chain: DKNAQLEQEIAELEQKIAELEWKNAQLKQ

[15] = molecular target: T15, 4H3010-bA; test: two-hybrid library CCNG1
T15 chain: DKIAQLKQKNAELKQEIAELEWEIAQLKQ

[16] = molecular target: T16, 4H968-bA; test: two-hybrid library CCNG1
T16 chain: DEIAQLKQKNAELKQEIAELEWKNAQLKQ

[17] = molecular target: T17, 4H855-bA; test: two-hybrid library CCNG1
T17 chain: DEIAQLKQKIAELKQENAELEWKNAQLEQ

[18] = molecular target: T18, 4H4073-bA; test: two-hybrid library CCNG1
T18 chain: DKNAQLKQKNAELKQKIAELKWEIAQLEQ

[19] = molecular target: T19, 4H575-bA; test: two-hybrid library CCNG1
T19 chain: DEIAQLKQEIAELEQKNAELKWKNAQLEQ

[20] = molecular target: T20, 4H2702-bA; test: two-hybrid library CCNG1
T20 chain: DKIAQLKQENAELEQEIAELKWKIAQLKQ

[21] = molecular target: T21, P9A-bN; test: two-hybrid library CCNG1
T21 chain: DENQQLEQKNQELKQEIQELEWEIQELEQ

[22] = molecular target: T22, P8A-bN; test: two-hybrid library CCNG1
T22 chain: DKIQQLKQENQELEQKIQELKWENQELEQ

[23] = molecular target: T23, 4H3920-AA; test: two-hybrid library CCmax; details: mean of both orientations
T23 chain: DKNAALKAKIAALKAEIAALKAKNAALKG

[24] = molecular target: T24, 4H2742-AA; test: two-hybrid library CCmax; details: mean of both orientations
T24 chain: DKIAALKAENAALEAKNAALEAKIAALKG

[25] = molecular target: T25, 4H3666-AA; test: two-hybrid library CCmax; details: mean of both orientations
T25 chain: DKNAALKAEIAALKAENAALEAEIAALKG

[26] = molecular target: T26, 4H2248-AA; test: two-hybrid library CCmax; details: mean of both orientations
T26 chain: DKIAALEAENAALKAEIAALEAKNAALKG

[27] = molecular target: T27, 4H3066-AA; test: two-hybrid library CCmax; details: mean of both orientations
T27 chain: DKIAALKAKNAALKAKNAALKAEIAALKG

[28] = molecular target: T28, 4H3939-AA; test: two-hybrid library CCmax; details: mean of both orientations
T28 chain: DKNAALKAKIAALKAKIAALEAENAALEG

[29] = molecular target: T29, 4H3709-AA; test: two-hybrid library CCmax; details: mean of both orientations
T29 chain: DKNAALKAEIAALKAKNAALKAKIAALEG

[30] = molecular target: T30, 4H497-AA; test: two-hybrid library CCmax; details: mean of both orientations
T30 chain: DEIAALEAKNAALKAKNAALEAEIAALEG

[31] = molecular target: T31, 4H3417-AA; test: two-hybrid library CCmax; details: mean of both orientations
T31 chain: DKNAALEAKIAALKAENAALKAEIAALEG

[32] = molecular target: T32, 4H3029-AA; test: two-hybrid library CCmax; details: mean of both orientations
T32 chain: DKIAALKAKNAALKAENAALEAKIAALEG

[33] = molecular target: T33, 4H3591-AA; test: two-hybrid library CCmax; details: mean of both orientations
T33 chain: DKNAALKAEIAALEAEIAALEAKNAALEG

[34] = molecular target: T34, 4H2948-AA; test: two-hybrid library CCmax; details: mean of both orientations
T34 chain: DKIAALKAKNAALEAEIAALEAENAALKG

[35] = molecular target: T35, 4H391-AA; test: two-hybrid library CCmax; details: mean of both orientations
T35 chain: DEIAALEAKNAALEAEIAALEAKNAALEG

[36] = molecular target: T36, 4H656-AA; test: two-hybrid library CCmax; details: mean of both orientations
T36 chain: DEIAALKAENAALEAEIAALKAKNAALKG

[37] = molecular target: T37, 4H2283-AA; test: two-hybrid library CCmax; details: mean of both orientations
T37 chain: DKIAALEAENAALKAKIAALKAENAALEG

[38] = molecular target: T38, 4H3102-AA; test: two-hybrid library CCmax; details: mean of both orientations
T38 chain: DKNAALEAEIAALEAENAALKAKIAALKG

[39] = molecular target: T39, 4H1854-AA; test: two-hybrid library CCmax
T39 chain: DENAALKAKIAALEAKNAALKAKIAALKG

[40] = molecular target: T40, 4H3628-AA; test: two-hybrid library CCmax; details: mean of both orientations
T40 chain: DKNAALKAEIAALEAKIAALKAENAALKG

[41] = molecular target: T41, 4H3446-AA; test: two-hybrid library CCmax; details: mean of both orientations
T41 chain: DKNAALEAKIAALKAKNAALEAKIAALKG

[42] = molecular target: T42, 4H189-AA; test: two-hybrid library CCmax; details: mean of both orientations
T42 chain: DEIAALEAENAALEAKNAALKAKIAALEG

[43] = molecular target: T43, 4H2713-AA; test: two-hybrid library CCmax; details: mean of both orientations
T43 chain: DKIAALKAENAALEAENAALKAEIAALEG

[44] = molecular target: T44, 4H2991-AA; test: two-hybrid library CCmax; details: mean of both orientations
T44 chain: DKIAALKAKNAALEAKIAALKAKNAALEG

[45] = molecular target: T45, 4H971-AA; test: two-hybrid library CCmax; details: mean of both orientations
T45 chain: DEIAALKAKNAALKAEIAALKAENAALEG

[46] = molecular target: T46, 4H3121-AA; test: two-hybrid library CCmax; details: mean of both orientations
T46 chain: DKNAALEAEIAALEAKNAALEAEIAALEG

[47] = molecular target: T47, 4H478-AA; test: two-hybrid library CCmax; details: mean of both orientations
T47 chain: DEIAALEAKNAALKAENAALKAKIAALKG

[48] = molecular target: T48, 4H675-AA; test: two-hybrid library CCmax; details: mean of both orientations
T48 chain: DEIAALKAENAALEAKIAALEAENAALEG

[49] = molecular target: T49, 4H428-AA; test: two-hybrid library CCmax; details: mean of both orientations
T49 chain: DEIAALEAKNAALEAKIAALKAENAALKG

B2: 4H470-bH (peptide)
chain: DEIQELEKKNEELKRENWELEKKIQELKR
interaction score [2]: 0.789

B3: 4H2673-bA (peptide)
chain: DKIAQLKQEIAELKQKNAELEWEIAQLEQ
interaction score [3]: -0.235
interaction score [4]: -0.889
interaction score [5]: 0.275
interaction score [6]: -1.17
interaction score [7]: 1.58
interaction score [8]: -2.16
interaction score [9]: -1.03
interaction score [10]: -0.931
interaction score [11]: -1.45
interaction score [12]: -0.575
interaction score [13]: -0.927
interaction score [14]: -0.873
interaction score [15]: 2
interaction score [16]: -0.811
interaction score [17]: 0.000366
interaction score [18]: 0.202
interaction score [19]: 0.276
interaction score [20]: -1.01

B5: 4H1854-AA (peptide)
chain: DENAALKAKIAALEAKNAALKAKIAALKG
interaction score [23]: -1.51
interaction score [24]: -1.53
interaction score [25]: 1.68
interaction score [26]: 1.14
interaction score [27]: -1.5
interaction score [28]: -1.28
interaction score [29]: -0.898
interaction score [30]: -1.88
interaction score [31]: 1.7
interaction score [32]: -0.674
interaction score [33]: -0.937
interaction score [34]: -0.756
interaction score [35]: 0.189
interaction score [36]: 0.553
interaction score [37]: -0.597
interaction score [38]: 0.389
interaction score [39]: 0.401
interaction score [40]: -1.22
interaction score [41]: -1
interaction score [42]: -1.76
interaction score [43]: -0.843
interaction score [44]: -1.61
interaction score [45]: -2.3
interaction score [46]: 1.28
interaction score [47]: -1.16
interaction score [48]: 0.675
interaction score [49]: -0.746

Now from value to binder:

interaction score [1]: -1.32
B1: P9mS (peptide)
chain: DENQQLEQKNSQLKQEISQLEQEISQLEY

interaction score [21]: -1.47
interaction score [22]: -1.84
B4: P8A-bN (peptide)
chain: DKIQQLKQENQELEQKIQELKWENQELEQ
